Reference: article PMC314469, “Protein Interaction Networks by Proteome Peptide Scanning” (PLoS Biology, 2004)

Key:
Experiment in all cases: SPOT array
[1] = target: T1, Boi1 SH3 (BOI1_YEAST), P38041
T1 chain: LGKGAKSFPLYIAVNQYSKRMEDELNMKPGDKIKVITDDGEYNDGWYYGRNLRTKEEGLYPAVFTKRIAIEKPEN

[2] = target: T2, Boi2 SH3 (BOI2_YEAST), P39969
T2 chain: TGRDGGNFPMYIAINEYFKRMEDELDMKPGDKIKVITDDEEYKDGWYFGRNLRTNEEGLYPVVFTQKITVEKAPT

[3] = target: T3, Rvs167 SH3 (RV167_YEAST), P39743
T3 chain: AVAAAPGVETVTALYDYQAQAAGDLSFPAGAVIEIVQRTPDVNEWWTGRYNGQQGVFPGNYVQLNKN

[4] = target: T4, Yfr024 SH3 (LSB3_YEAST), P43603
T4 chain: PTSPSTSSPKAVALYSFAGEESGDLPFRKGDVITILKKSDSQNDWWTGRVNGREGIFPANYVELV

[5] = target: T5, Yhr016c SH3 (YSC84_YEAST), P32793
T5 chain: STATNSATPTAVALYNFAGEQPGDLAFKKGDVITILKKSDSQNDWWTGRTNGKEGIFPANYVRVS

Binder	normalised SPOT signal, Boehringer light units (BLU); mean over the file's lines of this peptide [1]	normalised SPOT signal, Boehringer light units (BLU); mean over the file's lines of this peptide [2]	normalised SPOT signal, Boehringer light units (BLU); mean over the file's lines of this peptide [3]	normalised SPOT signal, Boehringer light units (BLU); mean over the file's lines of this peptide [4]	normalised SPOT signal, Boehringer light units (BLU); mean over the file's lines of this peptide [5]
STSPKLPPRGKQRE [YPL249C 293-306]	5220	90.9	57900	20400	72500
TAAPATPPRHISNN [YPR040W 50-63]	275	41.4	13200	30400	58900
STRPQMPSRTRETA [YJR090C 50-63]	311	43.5	74.7	4030	37.5
SVLPQTPLKDVMGG [YOR326W 1092-1105]	100	10.3	44.5	179	127
TATPSSPKRMHSSI [YNL321W 116-129]	50.9	36.1	81.7	534	244
TDPPPQPRRLSDIV [YPR115W 471-484]	69.1	36	122	5490	1780
STSPPRPKRIVVAI [YDR538W 48-61]	356	79.7	182	3980	1340
TDLPVNPPRDDKEW [YNR021W 264-277]	88.1	46.1	56.5	94.9	119
TDGPIDPFKEPKTS [YPR018W 481-494]	136	58.5	33.8	0	0
